Test results as given in article PMC5799254, “Target identification of small molecules using large-scale CRISPR-Cas mutagenesis scanning of essential genes” (Nature Communications, 2018).

Target: the molecule itself
Experiment: crystal structure; co-crystal of NAMPT (10 mg/mL) with a 5-fold excess of KPT-9274; hanging drops, 20 °C, reservoir 0.2 M NaCl, 0.1 M Tris pH 8.5, 22% PEG 3350

B1: nicotinamide phosphoribosyltransferase (NAMPT) (enzyme, human, UniProt P43490 1-491, looked up)
chain: MNPAAEAEFNILLATDSYKVTHYKQYPPNTSKVYSYFECREKKTENSKLRKVKYEETVFYGLQYILNKYLKGKVVTKEKIQEAKDVYKEHFQDDVFNEKGWNYILEKYDGHLPIEIKAVPEGFVIPRGNVLFTVENTDPECYWLTNWIETILVQSWYPITVATNSREQKKILAKYLLETSGNLDGLEYKLHDFGYRGVSSQETAGIGASAHLVNFKGTDTVAGLALIKKYYGTKDPVPGYSVPAAEHSTITAWGKDHEKDAFEHIVTQFSSVPVSVVSDSYDIYNACEKIWGEDLRHLIVSRSTQAPLIIRPDSGNPLDTVLKVLEILGKKFPVTENSKGYKLLPPYLRVIQGDGVDINTLQEIVEGMKQKMWSIENIAFGSGGGLLQKLTRDLLNCSFKCSYVVTNGLGINVFKDPVADPNKRSKKGRLSLHRTPAGNFVTLEEGKGDLEEYGQDLLHTVFKNGKVTKSYSFDEIRKNAQLNIELEAAHH
notes: nicotinamide phosphoribosyltransferase (NAMPT, NMPRTase), human, full length; also called NMPRTase
stoichiometry N: 2
